Results as given in publication PMC9712583, “Time-resolved β-lactam cleavage by L1 metallo-β-lactamase” (Nature Communications, 2022).

Target: the molecule itself
Experiment: SEC; L1 in solution; conditions not given

B1: L1 metallo-β-lactamase (MBL) from Stenotrophomonas maltophilia (enzyme)
chain: SAAEAPLPQLRAYTVDASWLQPMAPLQVADHTWQIGTEDLTALLVQTAEGAVLLDGGMPQMAGHLLDNMKLRGVAPQDLRLILLSHAHADHAGPVAELKRRTGAHVAANAETAVLLARGGSNDLHFGDGITYPPASADRIIMDGEVVTVGGIAFTAHFMPGHTPGSTAWTWTDTRDGKPVRIAYADSLSAPGYQLKGNPRYPRLIEDYKRSFATVRALPCDLLLTPHPGASNWNYAVGSKASAEALTCNAYADAAEKKFDAQLARETAGTR
notes: L1 metallo-β-lactamase, Stenotrophomonas maltophilia K279a, residues 20-290, amplified from genomic DNA and cloned into pMCSG53; Homotetramer; Active-site residue numbers in the text (H116, H118, D120 ...) appear to follow the standard MBL numbering, not the 20-290 numbering of the construct; also called L1 MBL; source: E. coli BL21 DE3 (Gold), purified (IMAC, TEV cleavage, second IMAC); not …
  stoichiometry N: 4
